Assay results: article PMC10278067

Tests used:
Test in all cases: SPR; Biacore 8K; original LD3 and mutants immobilised on CM5 chip by amine coupling (500-1000 RU); Bcl-2 injected as analyte in serial 2-fold dilutions (from 2000 or 500 nM); HBS-EP+ pH 7.4, 150 mM NaCl; 1:1 Langmuir fit; three independent experiments
LD3_v4 (F140A) = target: LD3_v4 (F140A)
LD3_v5 (K144A) = target: LD3_v5 (K144A)
LD3_v1 (L133A) = target: LD3_v1 (L133A)
LD3_v3 (D138A) = target: LD3_v3 (D138A)
LD3_v2 (I136A) = target: LD3_v2 (I136A)
Chain of LD3_v2 (I136A) (P02649 other isoform, or with tags, fused parts or gaps I136A): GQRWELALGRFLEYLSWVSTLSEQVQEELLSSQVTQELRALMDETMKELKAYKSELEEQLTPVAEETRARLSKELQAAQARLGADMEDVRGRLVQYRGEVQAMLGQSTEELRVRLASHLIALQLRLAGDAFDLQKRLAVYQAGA

Chain of LD3_v5 (K144A) (P02649 other isoform, or with tags, fused parts or gaps K144A): as the sequence (P02649 other isoform, or with tags, fused parts or gaps I136A) above, with A127I, K135A counted along it
Chain of LD3_v4 (F140A) (P02649 other isoform, or with tags, fused parts or gaps F140A): as the sequence (P02649 other isoform, or with tags, fused parts or gaps I136A) above, with A127I, F131A counted along it
Chain of LD3_v3 (D138A) (P02649 other isoform, or with tags, fused parts or gaps D138A): as the sequence (P02649 other isoform, or with tags, fused parts or gaps I136A) above, with A127I, D129A counted along it
Chain of LD3_v1 (L133A) (P02649 other isoform, or with tags, fused parts or gaps L133A): as the sequence (P02649 other isoform, or with tags, fused parts or gaps I136A) above, with L124A, A127I counted along it

## B-cell lymphoma 2 (Bcl-2) protein (from UniProt P10415 1-239) (natural protein)
LD3_v4 (F140A)
  Kd: 27.3 nM
  koff: 0.00197 s⁻¹
  kon: 240000 M⁻¹ s⁻¹
LD3_v5 (K144A)
  Kd: 0.46 nM
  koff: 6.6e-05 s⁻¹
  kon: 455000 M⁻¹ s⁻¹
LD3_v1 (L133A)
  Kd: 65.8 nM
  koff: 0.00263 s⁻¹
  kon: 40800 M⁻¹ s⁻¹
LD3_v3 (D138A)
  Kd: 358 nM
  koff: 0.0184 s⁻¹
  kon: 154000 M⁻¹ s⁻¹
LD3_v2 (I136A)
  Kd: 0.74 nM
  koff: 8.9e-05 s⁻¹
  kon: 360000 M⁻¹ s⁻¹
